From patent US20100291108A1 (published 2010)

T1: IREM-1Δ2 deletion construct (human)
T1 construct: Deletion construct of IREM-1 expressed in 293 cells
T1 chain: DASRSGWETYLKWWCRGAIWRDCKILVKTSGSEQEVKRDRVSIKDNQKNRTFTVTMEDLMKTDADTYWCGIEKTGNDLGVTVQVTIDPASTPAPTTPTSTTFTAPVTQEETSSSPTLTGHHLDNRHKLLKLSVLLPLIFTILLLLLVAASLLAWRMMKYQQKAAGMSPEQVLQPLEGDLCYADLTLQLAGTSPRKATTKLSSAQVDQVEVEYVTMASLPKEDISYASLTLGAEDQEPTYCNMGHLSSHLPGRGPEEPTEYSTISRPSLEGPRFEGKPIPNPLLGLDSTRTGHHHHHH

T2: IREM-1Δ5 deletion construct (human)
T2 construct: Deletion construct of IREM-1 expressed in 293 cells
T2 chain: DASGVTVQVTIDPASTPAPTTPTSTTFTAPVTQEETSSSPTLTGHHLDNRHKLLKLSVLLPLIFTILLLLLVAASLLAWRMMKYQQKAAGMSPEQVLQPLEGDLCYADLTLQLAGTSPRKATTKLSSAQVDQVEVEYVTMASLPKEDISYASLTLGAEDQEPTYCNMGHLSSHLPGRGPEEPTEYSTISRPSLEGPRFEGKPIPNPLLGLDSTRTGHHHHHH

T3: IREM-1Δ6 deletion construct (human)
T3 construct: Deletion construct of IREM-1 expressed in 293 cells
T3 chain: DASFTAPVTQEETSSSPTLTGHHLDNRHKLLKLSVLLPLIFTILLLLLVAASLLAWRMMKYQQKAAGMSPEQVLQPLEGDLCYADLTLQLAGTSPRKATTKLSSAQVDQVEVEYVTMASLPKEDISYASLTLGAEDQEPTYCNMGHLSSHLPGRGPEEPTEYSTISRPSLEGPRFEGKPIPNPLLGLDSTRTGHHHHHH

T4: IREM-1Δ3 deletion construct (human)
T4 construct: Deletion construct of IREM-1 expressed in 293 cells
T4 chain: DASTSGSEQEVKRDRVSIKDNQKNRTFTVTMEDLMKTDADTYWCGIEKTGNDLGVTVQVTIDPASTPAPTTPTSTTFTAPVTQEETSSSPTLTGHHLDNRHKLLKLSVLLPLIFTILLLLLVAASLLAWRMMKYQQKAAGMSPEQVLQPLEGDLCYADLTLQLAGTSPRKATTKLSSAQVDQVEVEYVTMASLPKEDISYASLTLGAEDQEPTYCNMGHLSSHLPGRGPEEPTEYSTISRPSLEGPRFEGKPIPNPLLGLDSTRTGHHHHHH

T5: IREM-1Δ4 deletion construct (human)
T5 construct: Deletion construct of IREM-1 expressed in 293 cells
T5 chain: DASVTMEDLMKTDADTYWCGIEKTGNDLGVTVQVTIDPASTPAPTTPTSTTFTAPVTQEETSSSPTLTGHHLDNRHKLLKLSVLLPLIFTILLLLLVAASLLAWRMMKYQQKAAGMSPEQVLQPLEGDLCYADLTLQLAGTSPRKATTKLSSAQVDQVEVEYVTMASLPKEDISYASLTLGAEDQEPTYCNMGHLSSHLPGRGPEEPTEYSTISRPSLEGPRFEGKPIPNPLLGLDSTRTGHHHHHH


How the values were obtained:
[1] = molecular target: T6, IREM-1-ECD-V5His recombinant protein (human, UniProt Q8TDQ1 20-156); experiment: SPR (Biacore), mAb captured on the chip, antigen in solution, 25 C; KD = kd/ka
T6 construct: Produced in HEK-293 cells and purified on a Ni column; also called IREM-1 V5-6His protein; recombinant IREM-1 protein containing the complete extracellular domain; not shown: C-terminal V5-His tag

[2] = molecular target: T6, IREM-1-ECD-V5His recombinant protein; experiment: SPR (Biacore), mAb captured on the chip, antigen in solution, 25 C
Description: Kinetic rate constants (kₐ and kd) were determined using surface plasmon resonance and affinities (KD) were then calculated from the rate constants (kd/kₐ). Surface plasmon resonance was carried out on a BlAcore system (Biacore International AB, Uppsala, Sweden). […] Each of 5 concentrations was tested twice except the highest concentration which was tested 5 times in total, two times with a short dissociation of 300 seconds followed by three times with a dissociation of 60 minutes. The data sets from the long dissociation experiments were globally fit with the shorter association experiments to determine binding constants for the interactions. The analysis was carried out in HBS, pH 7.4 buffer at 25° C.

[3] = molecular target: T1, IREM-1Δ2 deletion construct; experiment: flow cytometry on 293 cells expressing the construct
[4] = molecular target: T2, IREM-1Δ5 deletion construct; experiment: as above
[5] = molecular target: IREM-1Δ1 deletion construct (human); experiment: as above
[6] = molecular target: T3, IREM-1Δ6 deletion construct; experiment: as above
[7] = molecular target: T4, IREM-1Δ3 deletion construct; experiment: as above
[8] = molecular target: T5, IREM-1Δ4 deletion construct; experiment: as above
[9] = molecular target: human IREM-1 (full-length, on cells) (human, UniProt Q8TDQ1 20-290); experiment: cell-based or functional assay

Row | Kd [1] [nM] | koff [2] [s⁻¹] | kon [2] [M⁻¹ s⁻¹] | binding result [3] | binding result [4] | binding result [5] | binding result [6] | binding result [7] | binding result [8] | CDC EC50 on AML cell line HL-60 [9] [ng/mL] | CDC EC50 on stage M1 AML patient sample [9] [ng/mL] | Binder | CDC (complement-dependent cytotoxicity) EC50 on 293 cells expressing IREM-1 [9] [ng/mL]
1 | 2.3 | 0.00066 | 282000 | no binding | no binding | binds | no binding | no binding | no binding | – | – | chimeric anti-IREM-1 monoclonal antibody B11 (antibody, human IgG1, V domains shown, No cleavage site is stated; also called mAb B11; VL2VH2) VH: QIQLVQSGPELEKPGETVKISCKASGYTFTNYPMHWVKQAPGKGLKWMGWINTYSGVPTYADDFKGRFAFSLETSASTAYLQINNLKNEDMATYFCARMDYYSNGFNYWGQGTTLTVSS VL: DVLMTQTPLSLPVSLGDQASISCRSSQSIVHSNGNTYLEWYLQKPGQSPKLLIYKVSNRFSGVPDRFSGSGSGTDFTLKISRVEAEDLGVYYCFQGSHVPWTFGGGTKLEIKR | –
2 | – | – | 228000 | no binding | no binding | binds | no binding | no binding | no binding | 1970 to 3840 | 0.0062 | chimeric anti-IREM-1 monoclonal antibody 871.1 (antibody, human IgG1, V domains shown, The CDC assays use an IgG2b isotype control, so the murine form may have been used there; No cleavage site is stated; also called mAb 871.1; VL1VH1) VH: EVKLVESGGGLVQPGGSLSLSCAASGFTFTDYYMSWVRQPPGMAPEWLGFIRNKANGYTTEYSASVKGRFTISRDDSQSILYLQMNALRAEDSATYYCAREDYGSSWGYYAMDCWGQGTSVTVSS VL: DIVMTQSQKFMSTSVGDRVSVTCKASQNVDTNVAWYQQKPGQSPKALLYSASYRHSGVPDRFTGSGSETDFTLTITNVQSEDLAEYFCQQYNSFPLTFGSGTKLEIRR | ~10
3 | 2.8 | 0.00072 | 255000 | no binding | no binding | binds | no binding | no binding | no binding | – | – | chimeric anti-IREM-1 monoclonal antibody D12 (antibody, human IgG1, V domains shown, No cleavage site is stated; also called mAb D12; clone #D12) VH: EIQLQQSGAELVRPGTSVKVSCKASGYAFTNYLIEWVKQRPGQGLEWIGVINPGSGGSYYNEKFKGKTTLTADKSSSTAYMQLSSLAFDDSAVYFCARSESNYSYYYAMDYWGQGTSVIVSS VL: not shown | –
